Experiments:
Test in all cases: In vitro phosphorylation kinetics with recombinant Akt
Type in all cases: biochemical
Details in all cases: other: recombinant Akt; n = 3
[1] = test system: CC(C)[C@H](NC(=O)[C@H](CCC(=O)O)NC(=O)[C@H](CCC(=O)O)NC(=O)[C@@H]1Cc2ccc(O)cc2CN1C(=O)[C@H](CCC(=O)O)NC(=O)[C@H](CC(=O)O)NC(=O)[C@H](CC(=O)O)NC(=O)[C@H](CCC(=O)O)NC(=O)[C@@H](CCCNC(=N)N)NC(=O)[C@@H](CCCNC(=N)N)NC(=O)[C@@H](CCCNC(=N)N)NC(=O)[C@H](C)N(C)C(=O)[C@H](Cc1ccccc1)NC(=O)[C@@H](NC(=O)[C@H](Cc1ccccc1)NC(=O)[C@H](C)NC(=O)[C@H](CCCNC(=N)N)N(C)C(=O)[C@@H]1CCCN1C(=O)[C@H](CCCNC(=N)N)NC(=O)CNC(=O)c1ccc2c(c1)C1(OC2=O)c2ccc(O)cc2Oc2cc(O)ccc21)[C@@H](C)O)C(N)=O
[2] = test system: CC(C)[C@H](NC(=O)[C@H](CCC(=O)O)NC(=O)[C@H](CCC(=O)O)NC(=O)[C@H](Cc1ccc(O)cc1)NC(=O)[C@H](CCC(=O)O)NC(=O)[C@H](CC(=O)O)NC(=O)[C@H](CC(=O)O)NC(=O)[C@H](CCC(=O)O)NC(=O)CCCCCNC(=O)[C@H](C)N(C)C(=O)[C@H](Cc1ccccc1)NC(=O)[C@@H](NC(=O)[C@H](Cc1ccccc1)NC(=O)[C@H](C)NC(=O)[C@H](CCCNC(=N)N)N(C)C(=O)[C@@H]1CCCN1C(=O)[C@H](CCCNC(=N)N)NC(=O)CNC(=O)c1ccc2c(c1)C1(OC2=O)c2ccc(O)cc2Oc2cc(O)ccc21)[C@@H](C)O)C(N)=O
[3] = test system: CC(C)[C@H](NC(=O)[C@H](CCC(=O)O)NC(=O)[C@H](CCC(=O)O)NC(=O)[C@H](Cc1ccc(O)cc1)NC(=O)[C@H](CCC(=O)O)NC(=O)[C@H](CC(=O)O)NC(=O)[C@H](CC(=O)O)NC(=O)[C@H](CCC(=O)O)NC(=O)[C@@H](CCCNC(=N)N)NC(=O)[C@@H](CCCNC(=N)N)NC(=O)[C@@H](CCCNC(=N)N)NC(=O)[C@H](C)N(C)C(=O)[C@H](Cc1ccccc1)NC(=O)[C@@H](NC(=O)[C@H](Cc1ccccc1)NC(=O)[C@H](C)NC(=O)[C@H](CCCNC(=N)N)N(C)C(=O)[C@@H]1CCCN1C(=O)[C@H](CCCNC(=N)N)NC(=O)CNC(=O)c1ccc2c(c1)C1(OC2=O)c2ccc(O)cc2Oc2cc(O)ccc21)[C@@H](C)O)C(N)=O

recombinant Akt (Homo sapiens) was tested, and the Km [1] was 17 ± 5 µM, the kcat [1] was 0.8 ± 0.1 s⁻¹ and the Km [2] was 28 ± 16 µM. For the same substance, the kcat [2] was 1.0 ± 0.4 s⁻¹, the Km [3] was 14 ± 3 µM and the kcat [3] was 0.7 ± 0.1 s⁻¹.

— PMC8753264
